Assay results from patent publication US20090298765A1 (Takeda / Millennium, published 2009).
Non-standard residues stand in square brackets, D forms with d. No end group written: not given here. *: point of attachment. GuAmb = 4-guanidinomethylbenzoyl, N=C(N)NCc1ccc(C(=O)*)cc1; 2‑(indol-3-yl)ethylcarbamoyl = O=C(NCCc1c[nH]c2ccccc12)*; Propanoyl(3-indol-3-yl) = O=C(CCc1c[nH]c2ccccc12)*; Diphenylacetyl = O=C(C(c1ccccc1)c1ccccc1)*; indole‑3‑carbonyl = O=C(c1c[nH]c2ccccc12)*; indole‑3‑acetyl = O=C(Cc1c[nH]c2ccccc12)*; Phe(4-F) = N[C@@H](Cc1ccc(F)cc1)C(=O)O; Arg(Me) = CNC(=N)NCCC[C@H](N)C(=O)O; Hydrocinnamoyl = O=C(CCc1ccccc1)*; azaGly = NNC(=O)O

Experiments:
[1] = molecular target: T1, human OT7T175 (metastin receptor) (human, UniProt Q969F8 1-398); experiment: cell-based or functional assay
T1 sequence (Q969F8 whole entry L364H): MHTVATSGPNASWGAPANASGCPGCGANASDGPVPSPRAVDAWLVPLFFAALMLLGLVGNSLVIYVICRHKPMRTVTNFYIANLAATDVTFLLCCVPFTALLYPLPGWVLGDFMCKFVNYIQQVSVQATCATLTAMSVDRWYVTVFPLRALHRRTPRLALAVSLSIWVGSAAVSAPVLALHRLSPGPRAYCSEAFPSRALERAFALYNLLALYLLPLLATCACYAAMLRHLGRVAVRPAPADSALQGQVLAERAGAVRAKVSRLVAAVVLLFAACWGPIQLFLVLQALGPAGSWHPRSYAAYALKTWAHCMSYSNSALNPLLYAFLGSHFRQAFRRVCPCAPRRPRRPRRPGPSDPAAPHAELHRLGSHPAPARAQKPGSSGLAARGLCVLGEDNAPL

[2] = molecular target: T1, human OT7T175 (metastin receptor); experiment: cell-based or functional assay; remark: listed apart in the source
[3] = molecular target: T1, human OT7T175 (metastin receptor); experiment: competition with Cy-5 metastin (40-54) on hOT7T175-CHO cells, FMAT

| Binder | Ca ion level-increasing activity (FLIPR) [1] | Ca ion level-increasing activity (FLIPR, 40 s) [2] [EC50/MS10 EC50] | IC50 [3] [nM] |
| --- | --- | --- | --- |
| {indole‑3‑carbonyl}-NSF[azaGly]L[Arg(Me)]F-NH2 (also called Compound No. 265) [des(1-3)-Indole-3-carbonyl-[AzaGly7,Arg(Me)9]MS10] | 3 x Metastin (1-54) | 4.4 | 95 |
| {indole‑3‑acetyl}-NSF[azaGly]L[Arg(Me)]F-NH2 (SMILES CNC(=N)NCCC[C@H](NC(=O)[C@H](CC(C)C)NC(=O)NNC(=O)[C@H](Cc1ccccc1)NC(=O)[C@H](CO)NC(=O)[C@H](CC(N)=O)NC(=O)Cc1c[nH]c2ccccc12)C(=O)N[C@@H](Cc1ccccc1)C(N)=O, also called Compound No. 266) [des(1-3)-Indole-3-acetyl-[AzaGly7,Arg(Me)9]MS10] | 2 x Metastin (1-54) | 5.4 | 230 |
| {Propanoyl(3-indol-3-yl)}-F[azaGly]L[Arg(Me)]F-NH2 (SMILES CNC(=N)NCCC[C@H](NC(=O)[C@H](CC(C)C)NC(=O)NNC(=O)[C@H](Cc1ccccc1)NC(=O)CCc1c[nH]c2ccccc12)C(=O)N[C@@H](Cc1ccccc1)C(N)=O) [des(1-5)-3-(3-Indolyl)propionyl-[AzaGly7,Arg(Me)9]MS10] | 2 x Metastin (1-54) | 5.9 | – |
| {Propanoyl(3-indol-3-yl)}-NSF[azaGly]L[Arg(Me)]F-NH2 (also: also named 1-(3-indolyl)propionyl cap, also called Compound No. 260) [des(1-3)-3-(3-Indolyl)propionyl-[AzaGly7,Arg(Me)9]MS10] | 5 x Metastin (1-54) | 4.3 | 320 |
| Hydrocinnamoyl-NSF[azaGly]L[Arg(Me)]F-NH2 (also called Compound No. 269) [des(1-3)-3-Phenylpropionyl-[AzaGly7,Arg(Me)9]MS10] | 3 x Metastin (1-54) | 3.4 | 470 |
| YNWNSFGLXF (Nar(Me)9; C-terminal amide, also called Compound No. 311) [[Nar(Me)9]MS10] | 1 x Metastin (1-54) | 6.2 | 470 |
| Diphenylacetyl-NSF[azaGly]L[Arg(Me)]F-NH2 (SMILES CNC(=N)NCCC[C@H](NC(=O)[C@H](CC(C)C)NC(=O)NNC(=O)[C@H](Cc1ccccc1)NC(=O)[C@H](CO)NC(=O)[C@H](CC(N)=O)NC(=O)C(c1ccccc1)c1ccccc1)C(=O)N[C@@H](Cc1ccccc1)C(N)=O, also called Compound No. 268) [des(1-3)-Diphenylacetyl-[AzaGly7,Arg(Me)9]MS10] | 1 x Metastin (1-54) | 4.5 | 550 |
| [dY]NWNSFGL[Arg(Me)]F-NH2 (also: bond 6-7 CONH replaced by NHCO (reversed)) [[6Ψ7,NHCO,D-Tyr1,Arg(Me)9]MS10] | 3 x Metastin (1-54) | 3.1 | – |
| GuAmb-F[azaGly]L[Arg(Me)]F-NH2 (SMILES CNC(=N)NCCC[C@H](NC(=O)[C@H](CC(C)C)NC(=O)NNC(=O)[C@H](Cc1ccccc1)NC(=O)c1ccc(CNC(=N)N)cc1)C(=O)N[C@@H](Cc1ccccc1)C(N)=O) [des(1-5)-GuAmb-[AzaGly7,Arg(Me)9]MS10] | 2 x Metastin (1-54) | 4.9 | – |
| [dY]NWNSFGL[Arg(Me)]F-NH2 (also: bond 6-7 CONH replaced by CH2NH, also called Compound No. 308) [[6Ψ7,CH2NH,D-Tyr1,Arg(Me)9]MS10] | – | 2.6 | 350 |
| YNWNSFGLXF (Nar9; C-terminal amide, also called Compound No. 310) [[Nar9]MS10] | 3 x Metastin (1-54) | 2 | 310 |
| GuAmb-FGL[Arg(Me)]F-NH2 (SMILES CNC(=N)NCCC[C@H](NC(=O)[C@H](CC(C)C)NC(=O)CNC(=O)[C@H](Cc1ccccc1)NC(=O)c1ccc(CNC(=N)N)cc1)C(=O)N[C@@H](Cc1ccccc1)C(N)=O) [des(1-5)-GuAmb-[Arg(Me)9]MS10] | 1 x Metastin (1-54) | 5 | – |
| [dY][dN]WNTF[azaGly]L[Arg(Me)]F-NH2 (N-terminus assumed; SMILES CNC(=N)NCCC[C@H](NC(=O)[C@H](CC(C)C)NC(=O)NNC(=O)[C@H](Cc1ccccc1)NC(=O)[C@@H](NC(=O)[C@H](CC(N)=O)NC(=O)[C@H](Cc1c[nH]c2ccccc12)NC(=O)[C@@H](CC(N)=O)NC(=O)[C@H](N)Cc1ccc(O)cc1)[C@@H](C)O)C(=O)N[C@@H](Cc1ccccc1)C(N)=O, also called Compound No. 298) [[D-Tyr1,D-Asn2,Thr5,AzaGly7,Arg(Me)9]MS10] | 5 x Metastin (1-54) | 1.8 | 0.25 |
| [dY]NWNTF[azaGly]L[Arg(Me)]F-NH2 (N-terminus assumed; SMILES CNC(=N)NCCC[C@H](NC(=O)[C@H](CC(C)C)NC(=O)NNC(=O)[C@H](Cc1ccccc1)NC(=O)[C@@H](NC(=O)[C@H](CC(N)=O)NC(=O)[C@H](Cc1c[nH]c2ccccc12)NC(=O)[C@H](CC(N)=O)NC(=O)[C@H](N)Cc1ccc(O)cc1)[C@@H](C)O)C(=O)N[C@@H](Cc1ccccc1)C(N)=O, also called Compound No. 297) [[D-Tyr1,Thr5,AzaGly7,Arg(Me)9]MS10] | 1 x Metastin (1-54) | 5.5 | 0.93 |
| [dY]NWNSF[azaGly]L[Arg(Me)][Phe(4-F)]-NH2 (also called Compound No. 318) [[D-Tyr1,AzaGly7,Arg(Me)9,Phe(4F)10]MS10] | – | 2.9 | 0.99 |
| [dY]NWNSFGL[Arg(Me)]F-NH2 (also: bond 6-7 CONH replaced by CSNH (thioamide), also called Compound No. 296) [[6Ψ7,CSNH,D-Tyr1,Arg(Me)9]MS10] | 3 x Metastin (1-54) | 5.2 | 14 |
| {2‑(indol-3-yl)ethylcarbamoyl}-NSF[azaGly]L[Arg(Me)]F-NH2 (SMILES CNC(=N)NCCC[C@H](NC(=O)[C@H](CC(C)C)NC(=O)NNC(=O)[C@H](Cc1ccccc1)NC(=O)[C@H](CO)NC(=O)[C@H](CC(N)=O)NC(=O)NCCc1c[nH]c2ccccc12)C(=O)N[C@@H](Cc1ccccc1)C(N)=O, also called Compound No. 279) [des(1-3)-2-(Indol-3-yl)ethylcarbamoyl-[AzaGly7,Arg(Me)9]MS10] | 5 x Metastin (1-54) | 6.4 | 29 |
